Test results as given in patent US20020182656.

Molecular target: T1, Purified, recombinant sGNK
T1 chain: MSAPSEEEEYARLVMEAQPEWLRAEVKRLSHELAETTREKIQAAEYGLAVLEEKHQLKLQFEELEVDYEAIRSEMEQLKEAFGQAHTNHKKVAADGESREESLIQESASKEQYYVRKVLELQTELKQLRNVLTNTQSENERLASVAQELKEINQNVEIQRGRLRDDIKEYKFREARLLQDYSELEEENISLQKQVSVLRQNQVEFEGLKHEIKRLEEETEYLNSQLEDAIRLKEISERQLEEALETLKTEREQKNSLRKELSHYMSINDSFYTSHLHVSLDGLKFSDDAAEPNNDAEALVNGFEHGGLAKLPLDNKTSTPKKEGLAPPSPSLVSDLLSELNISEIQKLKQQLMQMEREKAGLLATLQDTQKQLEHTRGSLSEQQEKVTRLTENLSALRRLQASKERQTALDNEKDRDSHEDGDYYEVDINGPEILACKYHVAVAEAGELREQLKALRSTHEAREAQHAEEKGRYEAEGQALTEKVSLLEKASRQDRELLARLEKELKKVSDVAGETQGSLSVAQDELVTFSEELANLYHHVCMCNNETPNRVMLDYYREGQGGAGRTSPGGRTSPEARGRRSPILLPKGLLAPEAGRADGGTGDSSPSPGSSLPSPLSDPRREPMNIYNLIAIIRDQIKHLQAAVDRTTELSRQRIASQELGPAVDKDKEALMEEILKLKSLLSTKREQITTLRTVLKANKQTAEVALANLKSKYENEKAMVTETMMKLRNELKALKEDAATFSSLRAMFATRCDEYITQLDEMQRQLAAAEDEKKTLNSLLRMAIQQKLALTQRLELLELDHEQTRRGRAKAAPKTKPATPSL

B1: Human recombinant GNK (hu-rGNK) (protein)
chain: MSVLGEYERHCDSINSDFGSESGGCGDSSPGPSASQGPRAGGGAAEQEELHYIPIRVLGRGAFGEATLYRRTEDDSLVVWKEVDLTRLSEKERRDALNEIVILALLQHDNIIAYYNHFMDNTTLLIELEYCNGGNLYDKILRQKDKLFEEEMVVWYLFQIVSAVSCIHKAGILHRDIKTLNIFLTKANLIKLGDYGLAKKLNSEYSMAETLVGTPYYMSPELCQGVKYNFKSDIWAVGCVIFELLTLKRTFDATNPLNLCVKIVQGIRAMEVDSSQYSLELIQMVHSCLDQDPEQRPTADELLDRPLLRKRRREMEEKVTLLNAPTKRPRSSTVTEAPIAVVTSRTSEVYVWGGGKSTPQKLDVIKSGCSARQVCAGNTHFAVVTVEKELYTWVNMQGGTKLHGQLGHGDKASYRQPKHVEKLQGKAIHQVSCGDDFTVCVTDEGQLYAFGSDYYGCMGVDKVAGPEVLEPMQLNFFLSNPVEQVSCGDNHVVVLTRNKEVYSWGCGEYGRLGLDSEEDYYTPQKVDVPKALIIVAVQCGCDGTFLLTQSGKVLACGLNEFNKLGLNQCMSGIINHEAYHEVPYTTSFTLAKQLSFYKIRTIAPGKTHTAAIDERGRLLTFGCNKCGQLGVGNYKKRLGINLLGGPLGGKQVIRVSCGDEFTIAATDDNHIFAWGNGGNGRLAMTPTERPHGSDICTSWPRPIFGSLHHVPDLSCRGWHTILIVEKVLNSKTIRSNSSGLSIGTVFQSSSPGGGGGGGGGEEEDSQQESETPDPSGGFRGTMEADRGMEGLISPTEAMGNSNGASSSCPGWLRKELENAEFIPMPDSPSPLSAAFSESEKDTLPYEELQGLKVASEAPLEHKPQVEASSPRLNPAVTCAGKGTPLTPPACACSSLQVEVERLQGLVLKCLAEQQKLQQENLQIFTQLQKLNKKLEGGQQVGMHSKGTQTAKEEMEMDPKPDLDSDSWCLLGTDSCRPSL
With B1 the “phosphorylation of sGNK by GNK (kinase assay with gamma-32P-ATP, SDS-PAGE, Phosphoimager)” value was “GNK-mediated phosphorylation of sGNK was demonstrated using the kinase assay described above, except purified, recombinant sGNK was added to the kinase reaction mixture”.
